Assay results as given in US20210246200A1 (UNIVERSIT T Z RICH, published 2021).
Positions count from the first letter of the chain named. Names may count otherwise.

B1: 104349 (antibody, V domains shown)
VH: EVQLVQSGAEVKKPGESLKISCKGSGYAFTNYLIEWVRQMPGKGLEWMGVINPGSGGTNYNEKFKGQVTISADKSISTAYLQWSSLKASDTAMYYCARWRGDGYYAYFDVWGQGTTVTVSS
VL: DIVLTQSPLSLPVTLGQPASISCKASQSVDYDGDSYMNWYQQRPGQSPRLLIYAASNLESGVPDRFSGSGSGTDFTLKISRVEAEDVGVYYCQQSNEDPYTFGGGTKVEIK
notes: VH5/VK2
B2: 104348 (antibody, human IgG1, kappa, N297A, V domains shown)
VH: B1 VH
VL: AIRLTQSPSSFSASTGDRVTITCKASQSVDYDGDSYMNWYQQKPGKAPKLLIYAASNLESGVPSRFSGSGSGTDFTLTISSLQSEDFATYYCQQSNEDPYTFGGGTKVEIKR
notes: VH5/VK1, human IgG1 N297A
B3: NARA1 (antibody, mouse IgG2a, kappa, V domains shown)
VH: QVQLQQSGAELVRPGTSVKVSCKASGYAFTNYLIEWVKQRPGQGLEWIGVINPGSGGTNYNEKFKGKATLTADKSSSTAYMQLSSLTSDDSAVYFCARWRGDGYYAYFDVWGAGTTVTVSS
VL: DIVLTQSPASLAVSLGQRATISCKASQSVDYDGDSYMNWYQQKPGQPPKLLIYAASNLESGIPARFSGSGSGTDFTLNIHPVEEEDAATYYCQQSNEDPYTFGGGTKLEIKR
notes: Mouse monoclonal anti-human IL-2 antibody, mouse IgG2a; also called anti-IL-2 (NARA1)-mIgG2a; anti-IL-2 (NARA1)-mouse IgG2a
B4: 104343 (antibody, human IgG1, kappa, N297A, V domains shown)
VH: QVQLVQSGAEVKKPGSSVKVSCKASGYAFTNYLIEWVRQAPGQGLEWMGVINPGSGGTNYNEKFKGRVTITADKSTSTAYMELSSLRSEDTAVYYCARWRGDGYYAYFDVWGQGTTVTVSS
VL: DIVLTQSPLSLPVTLGQPASISCKASQSVDYDGDSYMNWYQQRPGQSPRLLIYAASNLESGVPDRFSGSGSGTDFTLKISRVEAEDVGVYYCQQSNEDPYTFGGGTKVEIKR
notes: VH1/VK2, human IgG1 N297A
B5: 104347 (antibody, V domains shown)
VH: QVQLVESGGGVVQPGRSLRLSCAASGYTFSSYLIEWVRQAPGKGLEWVAVINPGSGGTNYADSVKGRFTISADKSKNTAYLQMNSLRAEDTAVYYCARWRGDGYYAYFDVWGQGTTVTVSS
VL: EIVLTQSPATLSVSPGERATLSCRASQSVSYDGDSYMNWYQQKPGQAPRLLIYAASNLASGIPARFSGSGSGTEFTLTISSLQSEDAAVYYCQQSNEDPYTFGGGTKVEIK
notes: VH3s/VK3s
B6: 104348_VH5D98E_VK1D28Q (antibody, human IgG1, kappa, N297A, V domains shown)
VH: B1 VH with D102E
VL: B2 VL with D32Q
notes: also called Antibody No: 1; parental antibody
B7: Antibody No: 13 (antibody, human IgG1, kappa, N297A, V domains shown)
VH: B1 VH with N59Y, D102E
VL: B2 VL with D32Q, A54S
notes: VH N58Y; VK A50S; also called 108925
B8: Antibody No: 20 (antibody, human IgG1, kappa, N297A, V domains shown)
VH: B1 VH with N59Y, D102E, F108Y
VL: B2 VL with D32Q, M37L, A54S
notes: VK M33L + A50S; also called 108928
B9: Antibody No: 8 (antibody, human IgG1, kappa, N297A, V domains shown)
VH: B1 VH with D102E, F108Y
VL: B2 VL with D32Q, A54S
notes: VK A50S; also called 108923
B10: Antibody No: 15 (antibody, human IgG1, kappa, N297A, V domains shown)
VH: B1 VH with N59Y, D102E
VL: B2 VL with D32Q, M37L, A54S
notes: VH N58Y; VK M33L + A50S; also called 108926
B11: Antibody No: 12 (antibody, human IgG1, kappa, N297A, V domains shown)
VH: B1 VH with N59Y, D102E
VL: B2 VL with D32Q, M37L
notes: VH N58Y; VK M33L; also called 108924
B12: 104350 (antibody, V domains shown)
VH: B1 VH
VL: B5 VL
notes: VH5/VK3s
B13: 104348_VH5D98E_VK1 (antibody, V domains shown)
VH: B1 VH with D102E
VL: AIRLTQSPSSFSASTGDRVTITCKASQSVDYDGDSYMNWYQQKPGKAPKLLIYAASNLESGVPSRFSGSGSGTDFTLTISSLQSEDFATYYCQQSNEDPYTFGGGTKVEIK
notes: Human IgG1 Fc domain with the N297A point mutation
B14: 104349_VH5D98E_VK2D28Q (antibody, V domains shown)
VH: B1 VH with D102E
VL: B1 VL with D32Q
notes: as for B13
B15: 108930 (antibody, human IgG1, kappa, N297A, V domains shown)
VH: B1 VH with T30S, N59Y, D102E
VL: B2 VL with D32Q, M37L, A54S
B16: 108929 (antibody, human IgG1, kappa, N297A, V domains shown)
VH: B1 VH with T30S, N59Y, D102E
VL: B2 VL with D32Q, A54T
B17: 104348_VH5_VK1D28Q (antibody, V domains shown)
VH: B1 VH
VL: B13 VL with D32Q
notes: as for B13
B18: 104349_VH5_VK2D28Q (antibody, V domains shown)
VH: B1 VH
VL: B1 VL with D32Q
notes: as for B13
B19: 104349_VH5D98E_VK2 (antibody, V domains shown)
VH: B1 VH with D102E
VL: B1 VL
notes: as for B13
B20: 104341 (antibody, V domains shown)
VH: B4 VH
VL: B13 VL
notes: VH1/VK1
B21: 104344 (antibody, V domains shown)
VH: B4 VH
VL: B5 VL
notes: VH1/VK3s
B22: 104345 (antibody, V domains shown)
VH: B5 VH
VL: B13 VL
notes: VH3s/VK1
B23: 104343_VH1D98E_VK2D28Q (antibody, V domains shown)
VH: B4 VH with D102E
VL: B1 VL with D32Q
notes: as for B13
B24: 104343_VH1_VK2D28Q (antibody, V domains shown)
VH: B4 VH
VL: B1 VL with D32Q
notes: as for B13
B25: 104343_VH1D98E_VK2 (antibody, V domains shown)
VH: B4 VH with D102E
VL: B1 VL
notes: as for B13
B26: 104346 (antibody, V domains shown)
VH: B5 VH
VL: B1 VL
notes: VH3s/VK2

Biological target: T1, human IL-2 (wildtype) (human, UniProt P60568 21-153)
T1 construct: also called IL-2 (WT); IL-2 wt
Test: SET assay (solution equilibration titration, MSD)

T1 sequence (P60568 21-153 limits assumed): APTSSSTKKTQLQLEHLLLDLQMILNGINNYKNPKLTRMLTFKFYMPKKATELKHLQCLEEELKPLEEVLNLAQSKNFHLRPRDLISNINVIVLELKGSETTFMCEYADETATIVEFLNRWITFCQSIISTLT

binding result	Binder
binds	B1
binds	B2
binds	B3
binds	B4
binds	B5

Biological target: T2, Proleukin® (aldesleukin) (human, UniProt P60568 21-153, limits assumed)
T2 construct: Variant of human wt IL-2 with C145S (C125S on mature IL-2); also called IL-2 (Proleukin®); human IL-2 (Proleukin)
Test: ELISA, coated Proleukin, HEK293F supernatant 1:2
Method: Subsequently, hIL-2 binding efficiency of the antibodies present in the supernatants was determined using ELISA. In brief, ELISA plates (Maxisorp 96-well black microtiter plate) were coated overnight at 4° C. with 100p/well of Proleukin® (5 μg/ml PBS). ELISA plates were washed once with TBST (1×TBS/0.05% Tween 20) using a plate-washer (BioTek). […] After removal of the blocking buffer, plates were washed once with TBST using the plate washer. Supernatants were diluted 1:2 in blocking buffer and 50 μl transferred to the designated well of the ELISA plate. Each sample was present on three ELISA plates. The three plates were incubated at RT under gentle agitation. […] The other two plates were washed either every hour three times with TBST for 4 hours or washed every hour three times for 12 hours before adding the detection antibody. […] Luminescence signal was measured after 5 minutes incubation in the dark. […] All ELISA values are mean values based on two measurements.

T2 sequence (P60568 other isoform, or with tags, fused parts or gaps limits assumed): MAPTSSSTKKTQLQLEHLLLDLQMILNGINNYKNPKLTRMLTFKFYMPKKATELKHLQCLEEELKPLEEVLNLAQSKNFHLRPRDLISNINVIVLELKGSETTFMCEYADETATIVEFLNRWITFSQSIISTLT

ELISA value (Normal ELISA)	ELISA value (wash 3x every hour for 4 HRS)	ELISA value (wash 3x every hour for 12 HRS)	Binder
1180 luminescence signal	1060 luminescence signal	717 luminescence signal	B6
14500 luminescence signal	14600 luminescence signal	4520 luminescence signal	B7
11700 luminescence signal	11100 luminescence signal	5200 luminescence signal	B8
9370 luminescence signal	7310 luminescence signal	2530 luminescence signal	B9
11100 luminescence signal	10500 luminescence signal	3800 luminescence signal	B10
20000 luminescence signal	17400 luminescence signal	5960 luminescence signal	B11

Biological target: T2, Proleukin® (aldesleukin)
Test: ELISA, coated Proleukin, mean of 3 experiments;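 further: binding of anti-human IL-2 antibodies, tested as an 11-point dilution series for 2 hours, to plate-bound IL-2, detected via streptavidin-HRP with absorbance read at 450 nm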
Method: ELISA plates (Corning) were coated with human IL-2 (Proleukin) at 10 μg/mL in PBS overnight at 4° C. The plates were washed 6 times with PBST, then blocked in 1% BSA/PBST for 2 hours. After blocking and washing, the anti-human IL-2 antibodies were added on the plate in an 11-point dilution series in 1% BSA/PBST and incubated for 2 hours. […] The plates were then washed again and incubated with Streptavidin-Horseradish Peroxidase in 1% BSA/PBS for 45 minutes. After washing, the substrate (R&D Systems) was added into the plates and the enzymatic reaction was stopped after 3 minutes by adding Stop Solution. The plates were read by a microplate reader at 450 nm with a wavelength correction set to 540 nm.

EC50	Binder
1180 pM	B6
300 pM	B1
800 pM	B12
300 pM	B2
60 pM	B7
710 pM	B8
770 pM	B13
660 pM	B14
60 pM	B15
50 pM	B9
150 pM	B16
50 pM	B10
970 pM	B17
110 pM	B11
430 pM	B18
560 pM	B19
300 pM	B3
400 pM	B20
700 pM	B21
2900 pM	B22
300 pM	B4
750 pM	B23
590 pM	B24
570 pM	B25
1700 pM	B26
39000 pM	B5

Biological target: T2, Proleukin® (aldesleukin)
Test: ELISA, coated Proleukin, serially diluted supernatant

EC50	Binder
1040 pM	B6
190 pM	B7
270 pM	B8
240 pM	B9
280 pM	B10
250 pM	B11

Biological target: T2, Proleukin® (aldesleukin)
Test: SET assay (solution equilibration titration, MSD)
Method: A 22 serial 2n dilution of the antigen was prepared in sample buffer. A constant concentration of the antibody was added. […] A volume of 60 μl of each antigen:antibody mix was distributed in duplicates to a 384-well polypropylene microtiter plate (PP MTP). Sample buffer served as negative control and a sample containing no antigen as positive control (Bₘₐₓ). The plate was sealed and incubated overnight (o/n) at room temperature (RT). A 384-well standard MSD array plate was coated o/n with 2 μg/ml of IL-2. After three times washing with washing buffer, the plate was blocked with 50 μl/well blocking buffer for 1 hour at RT. After washing, a volume of 30 μl/well of the antigen:antibody mix was transferred from the PP MTP to the coated MSD plate and incubated for 20 min at RT. After an additional wash step, 30 μl of detection antibody (diluted 1:2000) in sample buffer was added to each well and incubated for 30 min at RT. The MSD plate was washed and 35 μl/well of read buffer was added and incubated for 5 min. ECL signals were measured with the MSD SECTOR Imager 6000.

Kd	Binder
272 pM	B6
82 pM	B1
105 pM	B2
206 pM	B13
188 pM	B14
155 pM	B17
69 pM	B18
178 pM	B19
78 pM	B3
75 pM	B4
111 pM	B23
69 pM	B24
98 pM	B25
10000 pM	B5
